We go through five molecules from paper PMC7367873, “Dissecting the sequence determinants for dephosphorylation by the catalytic subunits of phosphatases PP1 and PP2A” (Nature Communications, 2020).

Assay [1] has as its system GFP-14-3-3β and its binding proteins. Put plainly: GFP-14-3-3β co-IP with LC-MS/MS label-free quantification, untreated versus PP1c-treated. Also noted: species or system human. The conditions noted are these: label-free quantification, 3 replicates each.
Another assay deals with GFP-14-3-3β. Put plainly: GFP-14-3-3β co-IP with LC-MS/MS, untreated GFP-14-3-3β versus GFP control (14-3-3 interactome). Conditions: label-free quantification, 3 replicates each. In kind it is binding, human.
Where [2] appears, read: GFP-14-3-3β co-IP LC-MS/MS, PP1 vs untreated, student's t-test.
The mark [3] stands for this setting: GFP-14-3-3β co-IP LC-MS/MS, untreated vs GFP, student's t-test.

B1: WDR36 (protein, UniProt Q8NI36 1-895, looked up)
WD repeat-containing protein …: MERASERRTASALFAGFRALGLFSNDIPHVVRFSALKRRFYVTTCVGKSFHTYDVQKLSLVAVSNSVPQDICCMAADGRLVFAAYGNVFSAFARNKEIVHTFKGHKAEIHFLQPFGDHIISVDTDGILIIWHIYSEEEYLQLTFDKSVFKISAILHPSTYLNKILLGSEQGSLQLWNVKSNKLLYTFPGWKVGVTALQQAPAVDVVAIGLMSGQVIIHNIKFNETLMKFRQDWGPITSISFRTDGHPVMAAGSPCGHIGLWDLEDKKLINQMRNAHSTAIAGLTFLHREPLLVTNGADNALRIWIFDGPTGEGRLLRFRMGHSAPLTNIRYYGQNGQQILSASQDGTLQSFSTVHEKFNKSLGHGLINKKRVKRKGLQNTMSVRLPPITKFAAEEARESDWDGIIACHQGKLSCSTWNYQKSTIGAYFLKPKELKKDDITATAVDITSCGNFAVIGLSSGTVDVYNMQSGIHRGSFGKDQAHKGSVRGVAVDGLNQLTVTTGSEGLLKFWNFKNKILIHSVSLSSSPNIMLLHRDSGILGLALDDFSISVLDIETRKIVREFSGHQGQINDMAFSPDGRWLISAAMDCSIRTWDLPSGCLIDCFLLDSAPLNVSMSPTGDFLATSHVDHLGIYLWSNISLYSVVSLRPLPADYVPSIVMLPGTCQTQDVEVSEETVEPSDELIEYDSPEQLNEQLVTLSLLPESRWKNLLNLDVIKKKNKPKEPPKVPKSAPFFIPTIPGLVPRYAAPEQNNDPQQSKVVNLGVLAQKSDFCLKLEEGLVNNKYDTALNLLKESGPSGIETELRSLSPDCGGSIEVMQSFLKMIGMMLDRKRDFELAQAYLALFLKLHLKMLPSEPVLLEEITNLSSQVEENWTHLQSLFNQSMCILNYLKSALL
For B1, the “Difference (log2), PP1 vs untreated” value in assay [1] (setting [2]) is reported as -0.2458 log2. In addition, in the assay on GFP-14-3-3β (setting [3]), the “Difference (log2), untreated vs GFP” value worked out at 1.174 log2.

B2: NAT10 (protein, UniProt Q9H0A0 1-1025, looked up)
RNA cytidine acetyltransferase: MHRKKVDNRIRILIENGVAERQRSLFVVVGDRGKDQVVILHHMLSKATVKARPSVLWCYKKELGFSSHRKKRMRQLQKKIKNGTLNIKQDDPFELFIAATNIRYCYYNETHKILGNTFGMCVLQDFEALTPNLLARTVETVEGGGLVVILLRTMNSLKQLYTVTMDVHSRYRTEAHQDVVGRFNERFILSLASCKKCLVIDDQLNILPISSHVATMEALPPQTPDESLGPSDLELRELKESLQDTQPVGVLVDCCKTLDQAKAVLKFIEGISEKTLRSTVALTAARGRGKSAALGLAIAGAVAFGYSNIFVTSPSPDNLHTLFEFVFKGFDALQYQEHLDYEIIQSLNPEFNKAVIRVNVFREHRQTIQYIHPADAVKLGQAELVVIDEAAAIPLPLVKSLLGPYLVFMASTINGYEGTGRSLSLKLIQQLRQQSAQSQVSTTAENKTTTTARLASARTLYEVSLQESIRYAPGDAVEKWLNDLLCLDCLNITRIVSGCPLPEACELYYVNRDTLFCYHKASEVFLQRLMALYVASHYKNSPNDLQMLSDAPAHHLFCLLPPVPPTQNALPEVLAVIQVCLEGEISRQSILNSLSRGKKASGDLIPWTVSEQFQDPDFGGLSGGRVVRIAVHPDYQGMGYGSRALQLLQMYYEGRFPCLEEKVLETPQEIHTVSSEAVSLLEEVITPRKDLPPLLLKLNERPAERLDYLGVSYGLTPRLLKFWKRAGFVPVYLRQTPNDLTGEHSCIMLKTLTDEDEADQGGWLAAFWKDFRRRFLALLSYQFSTFSPSLALNIIQNRNMGKPAQPALSREELEALFLPYDLKRLEMYSRNMVDYHLIMDMIPAISRIYFLNQLGDLALSAAQSALLLGIGLQHKSVDQLEKEIELPSGQLMGLFNRIIRKVVKLFNEVQEKAIEEQMVAAKDVVMEPTMKTLSDDLDEAAKEFQEKHKKEVGKLKSMDLSEYIIRGDDEEWNEVLNKAGPNASIISLKSDKKRKLEAKQEPKQSKKLKNRETKNKKDMKLKRKK
On to B2, for which the “Difference (log2), PP1 vs untreated” value in assay [1] (setting [2]) is -0.2324 log2. Also, the “Difference (log2), untreated vs GFP” value in the assay on GFP-14-3-3β (setting [3]) was 2.262 log2.

B3: FAM120A (protein, UniProt Q9NZB2 1-1118, looked up)
Constitutive coactivator of …: MGVQGFQDYIEKHCPSAVVPVELQKLARGSLVGGGRQRPPQTPLRLLVDADNCLHRLYGGFYTDWVSGGQWNHMLGYLAALAKACFGGNIELFVFFNGALEKARLHEWVKRQGNERQTAQQIVSHVQNKGTPPPKVWFLPPVCMAHCIRLALIRFHVKVAQSIEDHHQEVIGFCRENGFHGLVAYDSDYALCNIPYYFSAHALKLSRNGKSLTTSQYLMHEVAKQLDLNPNRFPIFAALLGNHILPDEDLASFHWSLLGPEHPLASLKVRAHQLVLPPCDVVIKAVADYVRNIQDTSDLDAIAKDVFQHSQSRTDDKVIRFKRAIGYYSATSKPMSFHPPHYLAARPGPFGMPGMVPPHVPPQMLNIPQTSLQAKPVAPQVPSPGGAPGQGPYPYSLSEPAPLTLDTSGKNLTEQNSYSNIPHEGKHTPLYERSSPINPAQSGSPNHVDSAYFPGSSTSSSSDNDEGSGGATNHISGNKIGWEKTGSHSEPQARGDPGDQTKAEGSSTASSGSQLAEGKGSQMGTVQPIPCLLSMPTRNHMDITTPPLPPVAPEVLRVAEHRHKKGLMYPYIFHVLTKGEIKIAVSIEDEANKDLPPAALLYRPVRQYVYGVLFSLAESRKKTERLAFRKNRLPPEFSPVIIKEWAAYKGKSPQTPELVEALAFREWTCPNLKRLWLGKAVEDKNRRMRAFLACMRSDTPAMLNPANVPTHLMVLCCVLRYMVQWPGARILRRQELDAFLAQALSPKLYEPDQLQELKIENLDPRGIQLSALFMSGVDMALFANDACGQPIPWEHCCPWMYFDGKLFQSKLLKASREKTPLIDLCDGQADQAAKVEKMRQSVLEGLSFSRQSHTLPFPPPPALPFYPASAYPRHFGPVPPSQGRGRGFAGVCGFGGPYGETVATGPYRAFRVAAASGHCGAFSGSDSSRTSKSQGGVQPIPSQGGKLEIAGTVVGHWAGSRRGRGGRGPFPLQVVSVGGPARGRPRGVISTPVIRTFGRGGRYYGRGYKNQAAIQGRPPYAASAEEVAKELKSKSGESKSSAMSSDGSLAENGVMAEEKPAPQMNGSTGDARAPSHSESALNNDSKTCNTNPHLNALSTDSACRREAALEAAVLNKEE
As for B3, in assay [1] (log2 difference, pairwise comparison PP1 vs untreated), the “Difference (log2), PP1 vs untreated” value came to 1.725. In addition, the “Difference (log2), untreated vs GFP” value in the assay with GFP-14-3-3β (log2 difference, pairwise comparison untreated vs GFP) is -0.07006.

B4: XPOT (protein, UniProt O43592 1-962, looked up)
Exportin-T: MDEQALLGLNPNADSDFRQRALAYFEQLKISPDAWQVCAEALAQRTYSDDHVKFFCFQVLEHQVKYKYSELTTVQQQLIRETLISWLQAQMLNPQPEKTFIRNKAAQVFALLFVTEYLTKWPKFFFDILSVVDLNPRGVDLYLRILMAIDSELVDRDVVHTSEEARRNTLIKDTMREQCIPNLVESWYQILQNYQFTNSEVTCQCLEVVGAYVSWIDLSLIANDRFINMLLGHMSIEVLREEACDCLFEVVNKGMDPVDKMKLVESLCQVLQSAGFFSIDQEEDVDFLARFSKLVNGMGQSLIVSWSKLIKNGDIKNAQEALQAIETKVALMLQLLIHEDDDISSNIIGFCYDYLHILKQLTVLSDQQKANVEAIMLAVMKKLTYDEEYNFENEGEDEAMFVEYRKQLKLLLDRLAQVSPELLLASVRRVFSSTLQNWQTTRFMEVEVAIRLLYMLAEALPVSHGAHFSGDVSKASALQDMMRTLVTSGVSSYQHTSVTLEFFETVVRYEKFFTVEPQHIPCVLMAFLDHRGLRHSSAKVRSRTAYLFSRFVKSLNKQMNPFIEDILNRIQDLLELSPPENGHQSLLSSDDQLFIYETAGVLIVNSEYPAERKQALMRNLLTPLMEKFKILLEKLMLAQDEERQASLADCLNHAVGFASRTSKAFSNKQTVKQCGCSEVYLDCLQTFLPALSCPLQKDILRSGVRTFLHRMIICLEEEVLPFIPSASEHMLKDCEAKDLQEFIPLINQITAKFKIQVSPFLQQMFMPLLHAIFEVLLRPAEENDQSAALEKQMLRRSYFAFLQTVTGSGMSEVIANQGAENVERVLVTVIQGAVEYPDPIAQKTCFIILSKLVELWGGKDGPVGFADFVYKHIVPACFLAPLKQTFDLADAQTVLALSECAVTLKTIHLKRGPECVQYLQQEYLPSLQVAPEIIQEFCQALQQPDAKVFKNYLKVFFQRAKP
Turning to B4, in assay [1] (setting [2]), the “Difference (log2), PP1 vs untreated” value is on record as -0.251 log2. The “Difference (log2), untreated vs GFP” value in the assay on GFP-14-3-3β (setting [3]) is reported as 1.37 log2.

B5: CANX (protein, UniProt P27824 21-592, looked up)
Calnexin: HDGHDDDVIDIEDDLDDVIEEVEDSKPDTTAPPSSPKVTYKAPVPTGEVYFADSFDRGTLSGWILSKAKKDDTDDEIAKYDGKWEVEEMKESKLPGDKGLVLMSRAKHHAISAKLNKPFLFDTKPLIVQYEVNFQNGIECGGAYVKLLSKTPELNLDQFHDKTPYTIMFGPDKCGEDYKLHFIFRHKNPKTGIYEEKHAKRPDADLKTYFTDKKTHLYTLILNPDNSFEILVDQSVVNSGNLLNDMTPPVNPSREIEDPEDRKPEDWDERPKIPDPEAVKPDDWDEDAPAKIPDEEATKPEGWLDDEPEYVPDPDAEKPEDWDEDMDGEWEAPQIANPRCESAPGCGVWQRPVIDNPNYKGKWKPPMIDNPSYQGIWKPRKIPNPDFFEDLEPFRMTPFSAIGLELWSMTSDIFFDNFIICADRRIVDDWANDGWGLKKAADGAAEPGVVGQMIEAAEERPWLWVVYILTVALPVFLVILFCCSGKKQTSGMEYKKTDAPQPDVKEEEEEKEEEKDKGDEEEEGEEKLEEKQKSDAEEDGGTVSQEEEDRKPKAEEDEILNRSPRNRKPRRE
Turning to B5, in assay [1] (setting [2]), the “Difference (log2), PP1 vs untreated” value was -0.251 log2. Also, the “Difference (log2), untreated vs GFP” value in the assay on GFP-14-3-3β (setting [3]) is 0.347 log2.
